Data from patent publication US20200016201A1.
Values belong to the binder of their own block, whether it stands above or below them.

What was measured:
[1] = molecular target: HLA-DR on human cells (human); assay: avidity constant, Scatchard plot analysis on the target tumor cell line (ARH-77)
[2] = molecular target: HLA-DR on human cells (human); assay: avidity constant on tonsil lymphocytes

Ka [1]: 2.33e+08 M⁻¹
Ka [2]: 1.23e+08 M⁻¹
B1: Lym-2 (antibody, V domains shown)
VH: EVQLEESGGGLVQPGGSMKLSCVASGFTFSNYWMNWVRQSPEKGLEWVAEIRFKSHNYATHFAESVKGRFTISRDDSKSSVYLQMNNLRAEDTGIYYCTRRIGNSDYDWWYFDVWGAGTSVTVSS
VL: DIVMTQSHKFMSTSVGDRVSVTCKASQNVGNNVAWYQQKPGQSPKVLIYSASYRYSGVPDRFTGSGSGTDFTLTISNVQSEDLAEYFCQQYNTYPFTFGSGTKLEIK

Ka [2]: 8.8e+07 M⁻¹
B2: Lym-1 (antibody, V domains shown)
VH: QLKESGPGLVAPSQSLSITCTISGFSLTSYGVHWVRQPPGKGLEWLVVIWSDGSTTYNSALKSRLSISKDNSKSQVFLKMNSLQTDDTAIYYCASHYGSTLAFASWGHGTLVTVSA
VL: DIQMTQSPASLSASVGETVTIICRASVNIYSYLAWYQQKQGKSPQLLVYNAKILAEGVPSRFSGSGSGTQFSLKINSLQPEDFGSYYCQHHYGTFTFGSGTKLEIK
